Data from article PMC2812052.
“And” between values parts separate entries of the source, which are not always exact repeats. Equal entries are not always repeated. One block for each substance: values may come before it.

Tests used:
[1] = molecular target: recombinant bAα374-568 fragment corresponding to the full-length bovine fibrinogen αC-domain (bovine); experiment: SEC
[2] = molecular target: recombinant bAα374-568 fragment corresponding to the full-length bovine fibrinogen αC-domain (bovine); experiment: AUC
[3] = molecular target: recombinant hAα392-610 fragment corresponding to the full-length human fibrinogen αC-domain (human); experiment: SEC
[4] = molecular target: recombinant hAα392-610 fragment corresponding to the full-length human fibrinogen αC-domain (human); experiment: AUC
[5] = molecular target: recombinant human hAα425-503 fragment, truncated variant of the human fibrinogen αC-domain (human); experiment: SEC
[6] = molecular target: recombinant human hAα425-503 fragment, truncated variant of the human fibrinogen αC-domain (human); experiment: AUC

- oligomers (%) at 1.8 mg/mL, 0.15 M NaCl [1]: 9.5%
- oligomers (%) at 3.7 mg/mL, 0.15 M NaCl [1]: 27.2%
- oligomers (%) at 3.8 mg/mL, 2.0 M NaCl [1]: 54.4%
- Ka [2]: 26100 M⁻¹
- Kd [2]: 38.3 µM
Substance: recombinant bAα374-568 fragment corresponding to the full-length bovine fibrinogen αC-domain (domain or fragment)

- oligomers (%) at 1.9 mg/mL, 0.15 M NaCl [3]: 15.4%
- oligomers (%) at 3.8 mg/mL, 0.15 M NaCl [3]: 32%
- oligomers (%) at 4.0 mg/mL, 2.0 M NaCl [3]: 58.5%
- Ka [4]: 83200 M⁻¹
- Kd [4]: 12 µM
- stoichiometry N [4]: 11.3
Substance: recombinant hAα392-610 fragment corresponding to the full-length human fibrinogen αC-domain (domain or fragment)

- oligomers (%) at 1.6 mg/mL, 2.0 M NaCl [5]: 43.6%
- oligomers (%) at 3.2 mg/mL, 0.15 M NaCl [5]: 1.7%
- oligomers (%) at 3.2 mg/mL, 1.0 M NaCl [5]: 26.2%
- oligomers (%) at 6.3 mg/mL, 0.15 M NaCl [5]: 6.6%
- stoichiometry N [5]: 5 and 6
- Kd [6]: 1140 µM
Substance: recombinant human hAα425-503 fragment, truncated variant of the human fibrinogen αC-domain (domain or fragment)
